In patent US20030166537A1, “Use of GDNF for treating corneal defects” (Biopharm Gesellschaft Zur Biotechnologischen Entwicklung …, priority 1999, published 2003):

Tests used:
[1] = test system: corneal epithelial cells from the SV40 transformed cell line; test: in vitro wound healing assay (scratch wound), cell line; type: cell-based, human; conditions: 250 ng/ml; 18 h; control 20%±4.5
Procedure: For in vitro wound healing assays primary corneal epithelial cells and cells from the corneal epithelial cell line were seeded at a density of 5×10^5 onto 60 mm plastic dishes with 2 mm grid (Sarstedt, Numbrecht, Germany) and cultured for 2 days until subconfluency. For experiments with artemin primary cultured rabbit corneal epithelial cells were used. These cells had been isolated with Dispase (1,2 U/ml) and trypsin/EDTA. Rabbit cells had been cultured in medium 500 with additives (Cascade Biologies).
The cell layer was injured under the microscope by inducing several parallel scratches with a soft plastic cell scrubber (Falcon, Becton and Dickinson, Heidelberg, Germany). The tip of the scrubber was cut and measured about 1 mm and consequently the width of the scratch in the cell layer was also about 1 mm. Selected areas in the dishes were marked with a very fine marker pen and consecutive images were taken at different time points at 5×magnification under an inverted phase contrast microscope (Axiovert 25, Zeiss, Jena, Germany) equipped with a video camera. Following the experimental injury dishes were incubated in SHEM medium either containing no growth factors (control) or containing either GDNF (250 ng/ml) (recombinant human GDNF expressed in E. coli), NGF (250 ng/ml) (Boehringer Mannheim, Germany) or EGF ([…]). For experiments investigating artemin cells were cultured in medium 500 without additives and 250 ng artemin was added. For each condition four representative areas were evaluated within three dishes. The mean diameter of the scratch in each representative area was set as 100% at the beginning of the experiment. 18 hours later the mean diameter of the same scratch was calculated again and expressed in percent of the diameter at the beginning of the experiment.

[2] = test system: primary human corneal stromal cells; test: proliferation of cultured stromal keratocytes (cell counting, Cell Titer 96 AQueous assay); type: cell-based; conditions: 20 or 100 ng/ml; serum-free medium; D6; p<0.005
Procedure: In order to investigate the effect of GDNF on the proliferation of cultured stromal keratocytes the cells were passaged from DMEM +10% FBS into DMEM +1% FBS or into DMEM without FBS at a density of 5×10^4 cells/60 mm dish. Some cultures received recombinant human GDNF at the above-mentioned concentrations. Proliferation was measured after 6 days by counting cells under the phase contrast microscope (50 fields at 100×magnification per condition) as well as trypsinized cells. Also a Cell Titer 96 AQueous One Solution proliferation assay (Promega) was performed according to the manufacturess description. For this calorimetric assay 500 or 1000 cells were grown for 6 days in 96-well-plates (Falcon). Upon addition to the culture well a titrazolium dye is bioreduced by cells into a colored formazan product and the absorbance is quantified at 490 nm. The quantity of the formazan product is proportional to the number of living cells in the well and can therefore serve to estimate proliferation.

[3] = target: T1, Ret (Homo sapiens, UniProt P07949); test: immuno-precipitation and western blot of tyrosine-phosphorylated Ret in cultured corneal epithelial cells; type: cell-based; conditions: GDNF 200 ng/ml vs serum-free control cultures
T1 construct: The level of phosphorylated Ret (approximately 150 kD) in cultured corneal epithelial cells (control) was low prior to addition of GDNF; endogenous in cells; host or cells: SV40-transformed human corneal epithelial cell line (Araki-Sasaki et al., 1995)

[4] = test system: primary rabbit corneal epithelial cells; test: single cell clonal growth assay (colony formation, clonal proliferation); type: cell-based; conditions: D6
Excerpt: In order to evaluate the effect of GDNF on corneal proliferation, recombinant human GDNF was used (R&D, Minneapolis, Minn., USA). For the evaluation of the effect on corneal epithelial proliferaton a single cell clonal growth model was utilized which allows to determine the effect of the given growth factor on both colony formation as well as clonal expansion (Kruse et al., 1991). New Zealand white rabbits were housed and treated according to the ARVO Resolution of Animals in Research and under observation of German Federal Laws and the laws of the State of Baden-Württemberg. Prior to sacrifice with an intravenous overdose of pentobarbital, they received an intramuscular injection of xylazine hydrochloride and ketamine hydrochloride. The details of the clonal growth assay are described in Kruse et al. (1991). 5000 viable cells were seeded in each 16 mm dish in serum-free medium MCDB 151 with a supplement (S) of insulin (5 μg/ml), transferrin (5 μg/ml), selenium (5 ng/ml) and hydrocortisone (5 μg/ml) (all from Sigma, Deisenhofen, Germany). […] This quantification was facilitated by the use of dishes which contained a grit on the bottom which is roughly 2 mm wide (from Sarstedt, Newton, N.C., USA). For data collection the entire surface area of four randomly selected dishes for each condition was screened. Furthermore, the number of cells per colony was determined in 75 randomly selected colonies for each condition. Furthermore, the total number of cells/dish was calculated in order to carry out an evaluation for artemin. In order to stimulate the cellular proliferation, GDNF (50 or 200 ng/ml) or artemin (250 ng/ml) was added to the medium. In order to estimate the rate of proliferation after 12 days (a time when neighbouring colonies started to grow into each other and, therefore, prevented numerical quantification) dishes were fixed in −20° C. methanol and stained with methylene blue.
All experiments examining the effect of GDNF on corneal proliferation were performed in triplicate with cells from different donors. The influence of growth factor on colony formation, colony size and cell number was studied using one-way analysis of variance. […] Student's t-test was employed to determine which differences were significant after analysis of variance.

T1 sequence (P07949 29-1114): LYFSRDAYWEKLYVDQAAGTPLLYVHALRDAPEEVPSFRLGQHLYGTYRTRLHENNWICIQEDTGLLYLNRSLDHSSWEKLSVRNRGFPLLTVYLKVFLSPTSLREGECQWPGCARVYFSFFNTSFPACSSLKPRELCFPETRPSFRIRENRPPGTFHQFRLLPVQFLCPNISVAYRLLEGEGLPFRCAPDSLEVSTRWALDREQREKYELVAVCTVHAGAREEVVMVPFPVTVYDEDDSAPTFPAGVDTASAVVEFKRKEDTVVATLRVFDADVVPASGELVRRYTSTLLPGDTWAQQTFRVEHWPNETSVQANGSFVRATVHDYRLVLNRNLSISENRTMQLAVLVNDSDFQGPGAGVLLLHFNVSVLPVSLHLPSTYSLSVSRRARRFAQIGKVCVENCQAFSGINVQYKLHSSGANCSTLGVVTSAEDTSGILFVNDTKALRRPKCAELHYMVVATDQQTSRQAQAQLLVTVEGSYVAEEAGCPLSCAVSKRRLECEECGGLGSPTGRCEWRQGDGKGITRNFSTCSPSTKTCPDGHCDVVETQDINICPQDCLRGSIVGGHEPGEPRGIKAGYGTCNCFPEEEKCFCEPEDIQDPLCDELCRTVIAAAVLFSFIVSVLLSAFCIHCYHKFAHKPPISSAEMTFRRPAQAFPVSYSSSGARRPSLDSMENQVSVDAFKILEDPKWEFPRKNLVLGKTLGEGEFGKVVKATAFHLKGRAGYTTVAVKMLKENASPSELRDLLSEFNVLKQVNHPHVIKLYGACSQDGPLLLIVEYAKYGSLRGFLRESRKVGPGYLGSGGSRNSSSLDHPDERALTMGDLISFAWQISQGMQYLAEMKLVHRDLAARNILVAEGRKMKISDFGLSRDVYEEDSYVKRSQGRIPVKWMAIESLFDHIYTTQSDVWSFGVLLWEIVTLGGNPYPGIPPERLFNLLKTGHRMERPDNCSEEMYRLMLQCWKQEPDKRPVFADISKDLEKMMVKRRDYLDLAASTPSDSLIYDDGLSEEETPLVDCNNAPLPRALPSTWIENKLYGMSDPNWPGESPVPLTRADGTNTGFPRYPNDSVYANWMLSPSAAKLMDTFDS

time to induction of tyrosine phosphorylation of Ret [3]: ≤ 5 min
B1: GDNF: recombinant human GDNF having the amino acid sequence of human wild-type GDNF (GenBank L19063, L15306) (protein)
chain: SPDKQMAVLPRRERNRQAAAANPENSRGKGRRGQRGKNRGCVLTAIHLNVTDLGLGYETKEELIFRYCSGSCDAAETTYDKILKNLSRNRRLVSDKVGQACCRPIAFDDDLSFLDDNLVYHILRKHSAKRCGCI
gap in the cell monolayer filled [1]: 30%±6.9
proliferation of stromal keratocytes [2]: significantly enhanced
numbers of colonies per dish ([4]; GDNF 50 ng (p<0,05) and 200 ng (p<0.0001), serum-free MCDB): increased significantly
clonal proliferation (number of cells within each colony) ([4]; GDNF 50 and 200 ng/ml, p<0.01): significantly stimulated
